Experimental data as given in patent US20200405813A1 (SUTRO BIOPHARMA, published 2020).

B1: Conjugate 1: anti-FolR1-Compd 101 ADC (FolRα antibody 1848-B10 ADC, DAR 4) (antibody, human IgG1, kappa, V domains shown)
VH: EVQLVESGGGLVQPGGSLRLSCAASGFNTTTKSIHWVRQAPGKGLEWVGEIYPRDGITDYADSVKGRFTISADTSKNTAYLQMNSLRAEDTAVYYCARGGWHWRSGYSYYLDYWGQGTLVTVSS
VL: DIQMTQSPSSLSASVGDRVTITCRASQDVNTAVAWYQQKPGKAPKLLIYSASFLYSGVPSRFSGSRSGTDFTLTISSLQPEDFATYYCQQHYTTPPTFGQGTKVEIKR
modifications: pAMF (para-azidomethyl-L-phenylalanine) at Y180 and F404 conjugated to Compound 101 (by Table 16; Tables 8 and 10 say Y180 and K42 sites)
B2: Conjugate 49: anti-MUC16 sofituzumab+ Compd 401/Compd 101 (sofituzumab HC:4x pAMF iADC, 70% TLR agonist, DAR 3.9) (antibody, human IgG1, kappa, V domains shown)
VH: EVQLVESGGGLVQPGGSLRLSCAASGYSITNDYAWNWVRQAPGKGLEWVGYISYSGYTTYNPSLKSRFTISRDTSKNTLYLQMNSLRAEDTAVYYCARWTSGLDYWGQGTLVTVSS
VL: DIQMTQSPSSLSASVGDRVTITCKASDLIHNWLAWYQQKPGKAPKLLIYGATSLETGVPSRFSGSGSGTDFTLTISSLQPEDFATYYCQQYWTTPFTFGQGTKVEIKR
modifications: pAMF at Y180 and F404 conjugated to a mixture of Compound 401 and Compound 101

Key:
[1] = molecular target: FolR1 (folate receptor alpha) on FolR1-positive KB or Igrov1 cells (UniProt P15328 25-234, limits assumed); assay: cell-based or functional assay
[2] = molecular target: Muc16 on Muc16-positive OVCAR3 cells (UniProt Q8WXI7 1-14507, limits assumed); assay: cell-based or functional assay

FolR1 (folate receptor alpha) on FolR1-positive KB or Igrov1 cells, sequence (P15328 25-234 limits assumed): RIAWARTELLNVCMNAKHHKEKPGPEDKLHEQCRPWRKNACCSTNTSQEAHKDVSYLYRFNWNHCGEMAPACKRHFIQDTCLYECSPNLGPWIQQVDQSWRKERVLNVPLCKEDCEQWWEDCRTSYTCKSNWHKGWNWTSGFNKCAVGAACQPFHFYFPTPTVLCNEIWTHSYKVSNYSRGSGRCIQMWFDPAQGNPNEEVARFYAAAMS

Binder	Cell Killing on FolR1+ Igrov1 Cells, EC50 [1]	Cell Killing on OVCAR3 (Muc16+), EC50 [2]
B1	0.03 nM	
B2		0.1
